Biological target: Human recombinant voltage-dependent anion channel (human, UniProt P21796 1-283)
Experiment: radioligand binding

Chain of Human recombinant voltage-dependent anion channel (P21796 whole entry): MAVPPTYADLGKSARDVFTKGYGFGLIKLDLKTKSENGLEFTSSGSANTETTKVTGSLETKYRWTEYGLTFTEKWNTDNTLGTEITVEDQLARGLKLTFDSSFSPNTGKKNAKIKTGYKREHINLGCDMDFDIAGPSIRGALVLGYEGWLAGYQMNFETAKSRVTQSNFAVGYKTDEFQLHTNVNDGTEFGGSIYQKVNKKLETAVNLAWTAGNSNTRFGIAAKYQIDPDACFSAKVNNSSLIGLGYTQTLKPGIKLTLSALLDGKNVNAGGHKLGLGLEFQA

binding result: binds
B1: HK-I peptide Met1-Lys21 (P2) (peptide)
peptide: MIAAQLLAYYFTELKDDQVKKC

Source: paper PMC2943043 (Journal of neuroimmunology, 2010)
